The values below come from IntAct's records for PubMed 31515488.

Sequences and labels used below:
B1: Myogenin (Homo sapiens), P15173 (parent)
chain: MELYETSPYFYQEPRFYDGENYLPVHLQGFEPPGYERTELTLSPEAPGPLEDKGLGTPEHCPGQCLPWACKVCKRKSVSVDRRRAATLREKRRLKKVNEAFEALKRSTLLNPNQRLPKVEILRSAIQYIERLQALLSSLNQEERDLRYRGGGGPQPGVPSECSSHSASCSPEWGSALEFSANPGDHLLTADPTDAHNLHSLTSIVDSITVEDVSVAFPDETMPN
B2: Pleckstrin homology domain-containing family G member 6 (Homo sapiens), Q3KR16 (parent)
chain: MKAFGPPHEGPLQGLVASRIETYGGRHRASAQSTAGRLYPRGYPVLDPSRRRLQQYVPFARGSGQARGLSPMRLRDPEPEKRHGGHVGAGLLHSPKLKELTKAHELEVRLHTFSMFGMPRLPPEDRRHWEIGEGGDSGLTIEKSWRELVPGHKEMSQELCHQQEALWELLTTELIYVRKLKIMTDLLAAGLLNLQRVGLLMEVSAETLFGNVPSLIRTHRSFWDEVLGPTLEETRASGQPLDPIGLQSGFLTFGQRFHPYVQYCLRVKQTMAYAREQQETNPLFHAFVQWCEKHKRSGRQMLCDLLIKPHQRITKYPLLLHAVLKRSPEARAQEALNAMIEAVESFLRHINGQVRQGEEQESLAAAAQRIGPYEVLEPPSDEVEKNLRPFSTLDLTSPMLGVASEHTRQLLLEGPVRVKEGREGKLDVYLFLFSDVLLVTKPQRKADKAKVIRPPLMLEKLVCQPLRDPNSFLLIHLTEFQCVSSALLVHCPSPTDRAQWLEKTQQAQAALQKLKAEEYVQQKRELLTLYRDQDRESPSTRPSTPSLEGSQSSAEGRTPEFSTIIPHLVVTEDTDEDAPLVPDDTSDSGYGTLIPGTPTGSRSPLSRLRQRALRRDPRLTFSTLELRDIPLRPHPPDPQAPQRRSAPELPEGILKGGSLPQEDPPTWSEEEDGASERGNVVVETLHRARLRGQLPSSPTHADSAGESPWESSGEEEEEGPLFLKAGHTSLRPMRAEDMLREIREELASQRIEGAEEPRDSRPRKLTRAQLQRMRGPHIIQLDTPLSASEV
partner: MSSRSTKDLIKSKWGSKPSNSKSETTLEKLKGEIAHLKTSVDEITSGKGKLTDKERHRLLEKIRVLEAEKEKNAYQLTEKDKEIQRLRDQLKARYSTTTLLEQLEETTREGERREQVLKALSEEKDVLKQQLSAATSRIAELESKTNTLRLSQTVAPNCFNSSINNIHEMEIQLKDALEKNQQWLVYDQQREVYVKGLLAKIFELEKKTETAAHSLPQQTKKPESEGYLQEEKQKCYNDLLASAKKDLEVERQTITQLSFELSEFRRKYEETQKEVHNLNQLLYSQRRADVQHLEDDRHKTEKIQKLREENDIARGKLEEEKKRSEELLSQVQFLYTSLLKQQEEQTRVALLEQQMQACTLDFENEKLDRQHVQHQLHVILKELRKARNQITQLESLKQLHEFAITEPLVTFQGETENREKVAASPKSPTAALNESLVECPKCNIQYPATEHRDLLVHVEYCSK
B3: Microtubule-associated tumor suppressor candidate 2 (Homo sapiens), Q5JR59-3 (parent)
chain: MGHCCCKPYNCLQCLDKTNESALVKEKELSIELANIRDEVAFHTAKCEKLQKEKEELERRFEDEVKRLGWQQQAELQELEERLQLQFEAEMARLQEEHGDQLLSIRCQHQEQVEDLTASHDAALLEMENNHTVAITILQDDHDHKVQELMSTHELEKKELEENFEKLRLSLQDQVDTLTFQSQSLRDRARRFEEALRKNTEEQLEIALAPYQHLEEDMKSLKQVLEMKNQQIHEQEKKILELEKLAEKNIILEEKIQVLQQQNEDLKARIDQNTVVTRQLSEENANLQEYVEKETQEKKRLSRTNEELLWKLQTGDPTSPIKLSPTSPVYRGSSSGPSSPARVSTTPR
partner: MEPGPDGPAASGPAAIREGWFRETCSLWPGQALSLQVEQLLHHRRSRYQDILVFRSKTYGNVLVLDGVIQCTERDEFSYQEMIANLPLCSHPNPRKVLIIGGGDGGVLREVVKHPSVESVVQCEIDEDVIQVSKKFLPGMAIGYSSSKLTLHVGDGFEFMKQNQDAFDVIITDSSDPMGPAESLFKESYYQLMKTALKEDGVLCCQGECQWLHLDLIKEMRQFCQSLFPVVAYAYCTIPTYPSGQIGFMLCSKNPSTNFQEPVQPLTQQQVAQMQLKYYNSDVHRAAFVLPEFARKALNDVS
B4: Tyrosine aminotransferase (Homo sapiens), P17735 (parent)
chain: MDPYMIQMSSKGNLPSILDVHVNVGGRSSVPGKMKGRKARWSVRPSDMAKKTFNPIRAIVDNMKVKPNPNKTMISLSIGDPTVFGNLPTDPEVTQAMKDALDSGKYNGYAPSIGFLSSREEIASYYHCPEAPLEAKDVILTSGCSQAIDLCLAVLANPGQNILVPRPGFSLYKTLAESMGIEVKLYNLLPEKSWEIDLKQLEYLIDEKTACLIVNNPSNPCGSVFSKRHLQKILAVAARQCVPILADEIYGDMVFSDCKYEPLATLSTDVPILSCGGLAKRWLVPGWRLGWILIHDRRDIFGNEIRDGLVKLSQRILGPCTIVQGALKSILCRTPGEFYHNTLSFLKSNADLCYGALAAIPGLRPVRPSGAMYLMVGIEMEHFPEFENDVEFTERLVAEQSVHCLPATCFEYPNFIRVVITVPEVMMLEACSRIQEFCEQHYHCAEGSQEECDK
B5: Transmembrane protein 187 (Homo sapiens), Q14656 (parent)
chain: MNPEWGQAFVHVAVAGGLCAVAVFTGIFDSVSVQVGYEHYAEAPVAGLPAFLAMPFNSLVNMAYTLLGLSWLHRGGAMGLGPRYLKDVFAAMALLYGPVQWLRLWTQWRRAAVLDQWLTLPIFAWPVAWCLYLDRGWRPWLFLSLECVSLASYGLALLHPQGFEVALGAHVVAAVGQALRTHRHYGSTTSATYLALGVLSCLGFVVLKLCDHQLARWRLFQCLTGHFWSKVCDVLQFHFAFLFLTHFNTHPRFHPSGGKTR
partner: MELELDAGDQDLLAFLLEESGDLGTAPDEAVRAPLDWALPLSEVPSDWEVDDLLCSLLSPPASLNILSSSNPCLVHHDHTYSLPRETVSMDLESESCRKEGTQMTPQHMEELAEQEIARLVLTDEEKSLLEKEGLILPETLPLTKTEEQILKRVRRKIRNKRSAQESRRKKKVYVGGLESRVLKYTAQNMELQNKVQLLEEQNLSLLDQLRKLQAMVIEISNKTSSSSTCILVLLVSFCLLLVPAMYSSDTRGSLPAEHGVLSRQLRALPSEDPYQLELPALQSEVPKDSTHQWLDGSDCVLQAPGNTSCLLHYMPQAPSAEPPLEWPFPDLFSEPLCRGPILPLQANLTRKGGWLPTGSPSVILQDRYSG
B6: Protein FAM168A (Homo sapiens), Q92567 (parent)
chain: MNPVYSPVQPGAPYGNPKNMAYTGYPTAYPAAAPAYNPSLYPTNSPSYAPEFQFLHSAYATLLMKQAWPQNSSSCGTEGTFHLPVDTGTENRTYQASSAAFRYTAGTPYKVPPTQSNTAPPPYSPSPNPYQTAMYPIRSAYPQQNLYAQGAYYTQPVYAAQPHVIHHTTVVQPNSIPSAIYPAPVAAPRTNGVAMGMVAGTTMAMSAGTLLTTPQHTAIGAHPVSMPTYRAQGTPAYSYVPPHW

Variants of B1 are the subject of the first assay. To be noted: with fril_human FTL.
As for P49H, the “effect of a mutation on the interaction” value is recorded as “with no effect”.

For R147C, the “effect of a mutation on the interaction” value is on record as “with no effect”.

In a further assay the parent is B1. To be noted: with if4e2_human EIF4E2, O60573.
if4e2_human EIF4E2, O60573, sequence (O60573 whole entry): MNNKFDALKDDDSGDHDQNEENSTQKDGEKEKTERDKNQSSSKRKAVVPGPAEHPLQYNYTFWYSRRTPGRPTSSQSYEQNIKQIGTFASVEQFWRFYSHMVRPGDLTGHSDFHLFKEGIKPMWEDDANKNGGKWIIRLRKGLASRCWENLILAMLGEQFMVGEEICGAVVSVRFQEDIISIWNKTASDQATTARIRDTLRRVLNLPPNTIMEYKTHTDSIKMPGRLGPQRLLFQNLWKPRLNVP
In the case of P49H, the “effect of a mutation on the interaction” value was “with no effect”.

A further assay covers variants of B1. The settings on record: with mlh1_human MLH1, P40692.
mlh1_human MLH1, P40692, sequence (P40692 whole entry): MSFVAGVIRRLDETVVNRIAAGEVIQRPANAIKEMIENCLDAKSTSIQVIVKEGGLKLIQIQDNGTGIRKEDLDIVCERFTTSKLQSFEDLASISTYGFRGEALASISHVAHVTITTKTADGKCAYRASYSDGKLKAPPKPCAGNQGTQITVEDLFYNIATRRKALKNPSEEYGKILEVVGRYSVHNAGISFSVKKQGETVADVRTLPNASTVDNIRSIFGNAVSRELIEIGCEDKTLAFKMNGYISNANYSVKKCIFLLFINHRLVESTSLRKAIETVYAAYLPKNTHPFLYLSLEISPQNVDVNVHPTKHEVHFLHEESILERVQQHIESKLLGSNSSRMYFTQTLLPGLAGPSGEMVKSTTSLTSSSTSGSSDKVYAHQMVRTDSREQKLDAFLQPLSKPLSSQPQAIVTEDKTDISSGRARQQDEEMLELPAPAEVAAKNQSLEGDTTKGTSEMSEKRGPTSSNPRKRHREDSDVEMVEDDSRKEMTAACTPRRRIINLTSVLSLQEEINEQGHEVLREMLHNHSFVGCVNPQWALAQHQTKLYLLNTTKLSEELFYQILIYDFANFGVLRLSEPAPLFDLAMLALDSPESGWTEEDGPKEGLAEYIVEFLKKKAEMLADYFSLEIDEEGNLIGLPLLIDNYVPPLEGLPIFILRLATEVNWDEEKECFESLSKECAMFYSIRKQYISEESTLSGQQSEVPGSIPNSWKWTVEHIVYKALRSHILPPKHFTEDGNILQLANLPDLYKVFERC
Consider P49H, for which the “effect of a mutation on the interaction” value is on record as “with no effect”.

In a further assay the parent is B2. The settings on record: with cep55_human CEP55, Q53EZ4.
In the case of P542S, the “effect of a mutation on the interaction” value is listed as “with no effect”.

In the case of R627W, the “effect of a mutation on the interaction” value is “with no effect”. On the same count and under the same terms, next, R763Q: “with no effect”.

In another assay the parent is B3. To be noted: with spee_human SRM.
Take A89V: the “effect of a mutation on the interaction” value is reported as “with no effect”.

Another assay covers variants of B4. To be noted: with ube3a_human UBE3A.
As to R119W, the “effect of a mutation on the interaction” value was “disrupting interaction strength”.

Another assay covers variants of B5. The settings on record: with creb3_human CREB3, O43889.
As to R138Q, the “effect of a mutation on the interaction” value was “with no effect”.

The variants in the next assay derive from B6. The settings on record: with ru1c_human SNRPC.
As for P122R, the “effect of a mutation on the interaction” value is reported as “with no effect”.

In another assay the parent is B6. To be noted: with ubs3b_human UBASH3B.
Regarding P122R, the “effect of a mutation on the interaction” value is “disrupting interaction strength”.

In another assay the parent is B6. The settings on record: with ub2v1_human UBE2V1, Q13404.
ub2v1_human UBE2V1, Q13404, sequence (Q13404 whole entry): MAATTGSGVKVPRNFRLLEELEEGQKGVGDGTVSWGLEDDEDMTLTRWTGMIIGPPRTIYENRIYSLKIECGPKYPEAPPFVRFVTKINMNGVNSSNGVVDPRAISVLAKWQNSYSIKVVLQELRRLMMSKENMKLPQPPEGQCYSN
Take P122R: the “effect of a mutation on the interaction” value is “disrupting interaction strength”.
